These results are taken from patent US20250268941A1 (AUTOLUS, published 2025).

Test [1] addresses BCMA on the cell surface (SupT1.BCMAhigh, SupT1.BCMAlow, MM.1s, JeKo-1 cells) (human) (UniProt Q02223). Nature of the test: cell-based or functional assay.
The target in test [2] is T1, soluble BCMA ectodomain (human, UniProt Q02223 1-54).
T1 construct: extracellular domain
T1 sequence (looked up): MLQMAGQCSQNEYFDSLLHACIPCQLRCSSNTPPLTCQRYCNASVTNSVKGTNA
Nature of the test: SPR, BCMA 50 nM serially diluted to 0.19 nM. As to the method: (§1) FIG. 6—Surface plasmon resonance sensogram of binding kinetics between D8 IgG and BCMA is shown. BCMA starting concentration was 50 nM with serial dilutions to 0.19 nM.
(§2) D8 IgG binding to soluble BCMA ectodomain was also studied using surface plasmon resonance (FIG. 6).

For test [3], the target named is T1, soluble BCMA ectodomain. Nature of the test: SPR, soluble BCMA ectodomain as analyte. On the procedure: as §1, §2
The target of test [4] is T2, BCMA-Avi (Homo sapiens, UniProt Q02223, biotinylated at the AviTag (implied by detection with streptavidin-APC); position not given).
T2 construct: soluble recombinant staining reagent; also called BCMA-AviTag; BCMA-Avi/Strep-APC
T2 sequence (recombinant BCMA with AviTag, looked up): T1 sequence (looked up)
Nature of the test: flow cytometry of live CD3+ T cells transduced with CAT-41BB-ζ alone, stained with BCMA-AviTag plus streptavidin-APC; the staining concentration is not given [a].

bb2121 CAR: the viable SupT1 BCMAlow targets remaining, 24 h co-culture, E:T 1:8 in test [1] was found to be 21.1%.

With LCAR-B38M CAR, the viable SupT1 BCMAlow targets remaining, 24 h co-culture, E:T 1:8 in test [1] stood at 25.5%.

B1: D8 IgG (antibody, V domains shown)
VH: EVQLVESGGGLVQPGRSLKLSCAASGFIFSDYNMAWVRQAPKKGLEWVATIIYDGSSTNHGDSVKGRFTISRDNAKSTLYLQMDSLRSEDTATYYCATRPGPFAYWGQGTLVTVS
VL: DVVLTQTPPTLSATIGQSVSISCRSSQSLLHSNGNTYLHWLLQRPGQSPQFLIYLVSGLGSGVPNRFSGSGSGTDFTLKISGVEAEDLGIYYCVHGTHAWTVGGGTKLELK
On to B1, for which the koff in test [2] was determined as 0.00433 s⁻¹. In test [3], this molecule registered a dissociation constant (Kd) of 0.126 nM.

B2: CAT-41BB-ζ CAR (other)
chain: QVQLQQSGPELVKPGASVKISCKASGYAFSSSWMNWVKQRPGKGLEWIGRIYPGDEDTNYSGKFKDKATLTADKSSTTAYMQLSSLTSEDSAVYFCARSLLYGDYLDYWGQGTTLTVSSGGGGSGGGGSGGGGSQIVLTQSPAIMSASPGEKVTMTCSASSSVSYMHWYQQKSGTSPKRWIYDTSKLASGVPDRFSGSGSGTSYFLTINNMEAEDAATYYCQQWNINPLTFGAGTKLELKRSDPTTTPAPRPPTPAPTIASQPLSLRPEACRPAAGGAVHTRGLDFACDIYIWAPLAGTCGVLLLSLVITLYCKRGRKKLLYIFKQPFMRPVQTTQEEDGCSCRFPEEEEGGCELRVKFSRSADAPAYQQGQNQLYNELNLGRREEYDVLDKRRGRDPEMGGKPRRKNPQEGLYNELQKDKMAEAYSEIGMKGERRRGKGHDGLYQGLSTATKDTYDALHMQALPPR
notes: Expressed on primary human T cells; also called CAT19 CAR; CAT19CAR using Campana architecture
As to B2, in test [4], the binding result is recorded as “no binding”.
